Laboratory results: patent publication US20250042956A1 (University of California, published 2025)

Tests used:
Assay in all cases: IP-MS rep 1
[1] = molecular target: T1, AT5G08450.1 HDC1 (Arabidopsis thaliana)
T1 construct: Endogenous protein found by mass spectrometry
Method in brief: (§1)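 Ten grams of unopened floral buds from Col-0 wild type and FLAG-tagged transgenic Arabidopsis lines were ground in liquid nitrogen, homogenised in 25 mL IP buffer and filtered through Miracloth. Lysates were incubated with 250 μL anti-FLAG M2 magnetic beads at 4° C for 2 hours, washed and eluted with TBS containing 250 μg/mL 3×FLAG peptides. Eluted proteins were precipitated with trichloroacetic acid and analysed by mass spectrometry to give peptide counts for co-purified proteins.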

[2] = molecular target: T2, AT4G35510.1 TRBIP1 (Arabidopsis thaliana)
T2 construct: Endogenous protein found by mass spectrometry
T2 chain: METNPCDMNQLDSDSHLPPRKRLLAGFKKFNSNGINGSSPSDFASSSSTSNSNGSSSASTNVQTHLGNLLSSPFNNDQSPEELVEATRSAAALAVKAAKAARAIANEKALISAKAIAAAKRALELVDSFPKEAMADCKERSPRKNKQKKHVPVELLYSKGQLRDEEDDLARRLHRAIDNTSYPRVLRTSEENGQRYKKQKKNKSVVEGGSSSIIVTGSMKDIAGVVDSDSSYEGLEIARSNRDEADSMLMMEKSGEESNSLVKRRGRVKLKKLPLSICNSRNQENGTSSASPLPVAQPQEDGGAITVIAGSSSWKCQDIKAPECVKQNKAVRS
Method in brief: as §1

[3] = molecular target: T3, AT3G20740.1 FIE (Arabidopsis thaliana, UniProt Q9LT47 1-369)
T3 construct: Endogenous protein found by mass spectrometry; also called FERTILIZATION INDEPENDENT ENDOSPERM
T3 sequence (looked up): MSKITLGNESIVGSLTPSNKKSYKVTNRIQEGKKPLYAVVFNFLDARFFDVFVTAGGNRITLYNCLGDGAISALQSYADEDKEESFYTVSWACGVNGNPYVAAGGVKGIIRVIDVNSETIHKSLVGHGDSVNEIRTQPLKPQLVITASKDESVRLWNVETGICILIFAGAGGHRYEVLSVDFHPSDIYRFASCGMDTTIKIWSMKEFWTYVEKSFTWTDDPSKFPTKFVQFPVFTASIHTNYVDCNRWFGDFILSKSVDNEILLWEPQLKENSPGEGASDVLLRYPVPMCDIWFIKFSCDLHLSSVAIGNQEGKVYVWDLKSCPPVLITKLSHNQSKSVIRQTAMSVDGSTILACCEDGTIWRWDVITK
Method in brief: as §1

[4] = molecular target: T4, AT5G51230.1 EMF2 (Arabidopsis thaliana, UniProt Q8L6Y4 1-631)
T4 construct: Endogenous protein found by mass spectrometry; also called EMBRYONIC FLOWER 2
T4 sequence (looked up): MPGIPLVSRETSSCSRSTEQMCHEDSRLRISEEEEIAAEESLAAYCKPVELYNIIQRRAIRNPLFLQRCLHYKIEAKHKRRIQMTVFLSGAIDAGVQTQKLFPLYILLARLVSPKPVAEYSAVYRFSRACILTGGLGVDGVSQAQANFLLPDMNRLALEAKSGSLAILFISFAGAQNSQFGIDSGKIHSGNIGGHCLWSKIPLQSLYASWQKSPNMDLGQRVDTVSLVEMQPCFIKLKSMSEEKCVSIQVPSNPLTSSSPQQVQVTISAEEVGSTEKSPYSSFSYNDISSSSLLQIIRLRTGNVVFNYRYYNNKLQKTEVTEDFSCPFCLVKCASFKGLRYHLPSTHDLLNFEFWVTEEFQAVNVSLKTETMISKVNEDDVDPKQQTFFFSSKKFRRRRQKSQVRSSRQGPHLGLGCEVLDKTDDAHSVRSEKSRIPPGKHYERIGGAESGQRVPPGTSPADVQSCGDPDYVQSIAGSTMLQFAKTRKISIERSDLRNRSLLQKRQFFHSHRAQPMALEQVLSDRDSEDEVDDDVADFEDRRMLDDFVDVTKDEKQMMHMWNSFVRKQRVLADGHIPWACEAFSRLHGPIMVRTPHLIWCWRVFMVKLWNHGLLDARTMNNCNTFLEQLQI
Method in brief: as §1

[5] = molecular target: T5, AT3G49850.1 TRB3 (Arabidopsis thaliana, UniProt Q9M2X3 1-295)
T5 construct: Endogenous protein found by mass spectrometry
T5 sequence: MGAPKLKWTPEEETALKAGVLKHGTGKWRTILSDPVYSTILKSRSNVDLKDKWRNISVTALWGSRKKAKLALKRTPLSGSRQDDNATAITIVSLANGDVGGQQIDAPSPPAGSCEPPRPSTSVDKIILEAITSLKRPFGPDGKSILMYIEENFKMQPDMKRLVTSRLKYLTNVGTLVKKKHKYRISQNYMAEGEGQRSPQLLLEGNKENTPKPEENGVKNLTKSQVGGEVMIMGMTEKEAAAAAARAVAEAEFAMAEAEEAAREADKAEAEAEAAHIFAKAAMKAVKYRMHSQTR
Method in brief: as §1

IP-MS count [1]: 2 | IP-MS count [2]: 1 | IP-MS count [3]: 1 | IP-MS count [4]: 0 | IP-MS count [5]: 8
B1: TRBIP2 (bait of the TRBIP2 IP-MS) (other, not shown: small tags and cut ends)
chain: MATNACLESDSLLPPRKRLLAGFKNQNSRISNESPSPPFASSSSSTTTSNGSSASAVVHTHHLDHLLNDQTRSPEELAQASKATAALAVKVAKAARATANEKAIIASKAVAAAKNALELFASFPAAETVSCKEPRLIRAINNSPRVLTDCSGHRNKKQKTLTSTMNDGNDVAGVVDSDDGTRVNGKLLLCDNTLKEKTEEESSSLGKRRGRVKLPLSMCAYKDQENGITLEENNLSVSKSEGYNGGVAQVIERPSWKCQDLKSPECVKQNKVVRS
notes: tag and its position not described; also called TRBIP2-1; TRBIP2-2
